According to paper PMC8117407:

Target: mXFP-TpoR (thrombopoietin receptor N-terminally fused to nonfluorescent mEGFP Tyr66Phe) (UniProt P40238)
Experiment: live-cell micropatterning with FRAP

fold reduction of binding stability against JAK2 FS wt: 20 fold
Substance: JAK2 FS L224E (domain or fragment)
